What was measured:
[1] = target: T1, recombinant human CD4 (catalogue number: 514-CD/CF, manufactured by R&D Systems) (human, UniProt P01730 26-390); assay: SPR, Biacore T100; antibody captured on anti-human IgG chip, recombinant human CD4 flowed; 1:1 binding model
T1 construct: Bought protein (R&D Systems); also called recombinant CD4
Experimental: (§1) In order to kinetically analyze the binding activity of anti-CD4 chimeric antibodies KM4045 to KM4049, 6G5-1 and 6G5-P to recombinant human CD4, the binding activity was measured by surface plasmon resonance method (SPR). All of the following manipulations were carried out using a Biacore T100 (manufactured by GE Healthcare Bio-Sciences). The anti-human IgG antibody was immobilized on a CM5 sensor chip (manufactured by GE Healthcare Bio-Sciences) by an amine coupling method using a Human Antibody Capture Kit (manufactured by GE Healthcare Bio-Sciences) in accordance with the protocols attached thereto. An assay sample (anti-CD4 chimeric antibodies KM4045 to KM4049) was added to be captured on the anti-human IgG antibody-immobilized chip to give 100 RU (resonance unit). Thereafter, the recombinant human CD4 (manufactured by R&D) diluted from 2500 ng/mL in five steps was allowed to run at a flow rate of 30 μL/min onto the chip, and the sensorgram corresponding to each concentration was obtained. The analysis was carried out in the 1:1 binding model using an analysis software attached to the apparatus, Biacore T100 Evaluation software (manufactured by Biacore), thereby calculating an association rate constant ka and a dissociation rate constant kd of respective antibodies for human CD4.
As a result, an association rate constant ka, a dissociation rate constant kd, and a dissociation constant KD (kd/ka) of individual antibodies thus obtained are given in Table 5.

[2] = target: T1, recombinant human CD4 (catalogue …); assay: as above; remark: listed apart in the source
Experimental: as §1
The measurement of a binding activity was carried out according to the method described in Example 7(2). The association rate constant ka, the dissociation rate constant kd and the dissociation constant KD (kd/ka) of respective antibodies thus obtained are shown in Table 6.

[3] = target: T1, recombinant human CD4 (catalogue …); assay: SPR, Biacore T100; antibody captured on anti-mouse IgG chip, recombinant human CD4 flowed; 1:1 binding model
Experimental: In order to kinetically analyze the binding activity of anti-CD4 rat monoclonal antibodies KM4065 to KM4069 and commercially available anti-human CD4 mouse antibody for recombinant human CD4, the binding activity was measured by surface plasmon resonance method (SPR). All of the following manipulations were carried out using the Biacore T100 (manufactured by GE Healthcare Bio-Sciences). The anti-mouse IgG antibody was immobilized on a CM5 sensor chip (manufactured by GE Healthcare Bio-Sciences) by an amine coupling method using a Mouse Antibody Capture Kit (manufactured by GE Healthcare Bio-Sciences) in accordance with the protocols attached thereto. Anti-CD4 rat monoclonal antibodies KM4065 to KM4069, Leu-3a (BD Biosciences), OKT4 (BioLegend) and 13B8.2 (Beckman Coulter) were added to be captured on the anti-mouse IgG antibody-immobilized chip to give 100 RU (resonance unit), respectively. Thereafter, the recombinant human CD4 (manufactured by R&D) diluted from 2500 ng/mL in five steps was allowed to run at a flow rate of 30 μL/min onto the chip, and the sensorgram corresponding to each concentration was obtained. The analysis was carried out in the 1:1 binding model using an analysis software attached to the apparatus, thereby calculating an association rate constant ka and a dissociation rate constant kd of individual antibodies for the human CD4.
As a result, an association rate constant (hereinafter, referred to as “ka”), a dissociation rate constant (hereinafter, referred to as “kd”) and a dissociation constant KD (kd/ka) of individual antibodies thus obtained are given in Table 2.

[4] = target: T1, recombinant human CD4 (catalogue …); assay: Biacore T100
[5] = target: T1, recombinant human CD4 (catalogue …); assay: SPR, Biacore T100; summary sentence to Table 6

Binder	Kd [1] [nM]	koff [1] [s⁻¹]	kon [1] [M⁻¹ s⁻¹]	Kd [2] [nM]	koff [2] [s⁻¹]	kon [2] [M⁻¹ s⁻¹]	Kd [3] [nM]	koff [3] [s⁻¹]	kon [3] [M⁻¹ s⁻¹]	other results
anti-CD4 human antibody 6G5-1 (antibody, V domains shown) VH: QVQLQQWGAGLLKPSETLSLTCAVYGGSFSGYYWSWIRQPPGKGLEWIGEINHSGSTNYNPSLKSRVTISVDTSKNQFSLKLSSVTAADTAVYYCARVINWFDPWGQGTLVTVSS VL: DIQMTQSPSSVSASVGDRVTITCRASQDISSWLAWYQHKPGKAPKLLIYAASSLQSGVPSRFSGSGSGTDFTLTISSLQPEDFATYYCQQANSFPYTFGQGTKLEIKR	1.46	0.000872	595000	1.54	0.000824	534000	–	–	–	–
anti-CD4 rat monoclonal antibody KM4068 (antibody, V domains shown, Rat hybridoma IgG with a kappa light chain) VH: QVQLKESGPGLVQPSQTLSLTCTVSGLSLTSNSVSWIRQPPGKGLEWMGIIWSNGDTDYNSAIKSRLSISRDTSKSQVFLKMNSLQTEDTAMYFCANPYYGYNFPFDYWGQGVMVTVSS VL: DIQMTQSPASLSASLEEIVTITCKASQGIDNYLSWYQQKPGKSPQLLIYDATSLADGVPSRFSGSRSGTQYSLKISRPQVDDSGIYYCLQSYSTPFTFGSGTKLEIK	–	–	–	–	–	–	1.1	0.00204	1.85e+06	–
anti-CD4 chimeric antibody KM4048 (antibody, V domains shown, Variable regions of rat KM4068 joined to the '113F type' human IgG1/IgG3 heavy chain constant region (US2007/0148165) and a human kappa constant region; Expressed in FUT8 knockout CHO cells (0% fucose)) VH: QVQLKESGPGLVQPSQTLSLTCTVSGLSLTSNSVSWIRQPPGKGLEWMGIIWSNGDTDYNSAIKSRLSISRDTSKSQVFLKMNSLQTEDTAMYFCANPYYGYNFPFDYWGQGVMVTVSS VL: DIQMTQSPASLSASLEEIVTITCKASQGIDNYLSWYQQKPGKSPQLLIYDATSLADGVPSRFSGSRSGTQYSLKISRPQVDDSGIYYCLQSYSTPFTFGSGTKLEIK	0.651	0.00381	5.85e+06	–	–	–	–	–	–	–
anti-CD4 chimeric antibody KM4049 (antibody, V domains shown, Variable regions of rat KM4069 joined to the '113F type' human IgG1/IgG3 heavy chain constant region (US2007/0148165) and a human kappa constant region; Expressed in FUT8 knockout CHO cells (0% fucose)) VH: QVQLKESGPGLVQPSQTLSLTCTVSGSSLTSNSVSWIRQPPGKGLEWMGVIWSNGDADYNSAIKSRLSISRDTSKSQVFLKMNSLQTEDTAMYFCASPYYGYYFPFDYWGQGVMVTVSS VL: DIQMTQSPASLSASLEEIVTITCKASQAIDAYLSWYQQKPGKSPQLLIYDATSLADGVPSRFSGSRSGTQYSLKISRPQVDDSGIYYCLQSYSTPFTFGSGTKLEIK	0.2	0.00116	5.77e+06	–	–	–	–	–	–	–
anti-CD4 rat monoclonal antibody KM4069 (antibody, V domains shown, Rat hybridoma IgG with a kappa light chain) VH: QVQLKESGPGLVQPSQTLSLTCTVSGSSLTSNSVSWIRQPPGKGLEWMGVIWSNGDADYNSAIKSRLSISRDTSKSQVFLKMNSLQTEDTAMYFCASPYYGYYFPFDYWGQGVMVTVSS VL: DIQMTQSPASLSASLEEIVTITCKASQAIDAYLSWYQQKPGKSPQLLIYDATSLADGVPSRFSGSRSGTQYSLKISRPQVDDSGIYYCLQSYSTPFTFGSGTKLEIK	–	–	–	–	–	–	0.482	0.000584	1.21e+06	–
anti-CD4 rat monoclonal antibody KM4066 (antibody, V domains shown, Rat hybridoma IgG with a kappa light chain) VH: EVQLEESGGGLVQPGRSLKLSCLASGFTFSNYGMNWIRQAPGKGLEWVASISGSSTYIYYADTVKGRFTISRENAENTLYLQMTSLRSEDTALYYCAREGSSTDRYYEVSFAYWGQGTLVTVSS VL: DVVLTQTPVSLSVTLGDQASISCRSSQSLEYSDGYTYLEWYLQKPGQSPQVLIYGVSNRFSGVPDRFIGSGSGTDFTLKISRVEPEDLGVYYCFQATHDPYTFGAGTRLELK	–	–	–	–	–	–	0.0882	0.000118	1.34e+06	–
anti-CD4 chimeric antibody KM4046 (antibody, V domains shown, Variable regions of rat KM4066 joined to the '113F type' human IgG1/IgG3 heavy chain constant region (US2007/0148165) and a human kappa constant region; Expressed in FUT8 knockout CHO cells (0% fucose)) VH: EVQLEESGGGLVQPGRSLKLSCLASGFTFSNYGMNWIRQAPGKGLEWVASISGSSTYIYYADTVKGRFTISRENAENTLYLQMTSLRSEDTALYYCAREGSSTDRYYEVSFAYWGQGTLVTVSS VL: DVVLTQTPVSLSVTLGDQASISCRSSQSLEYSDGYTYLEWYLQKPGQSPQVLIYGVSNRFSGVPDRFIGSGSGTDFTLKISRVEPEDLGVYYCFQATHDPYTFGAGTRLELK	0.0614	5.12e-05	834000	–	–	–	–	–	–	–
anti-CD4 rat monoclonal antibody KM4067 (antibody, V domains shown, Rat hybridoma IgG with a kappa light chain) VH: QVKLLQSGAALVKPGASVKMSCKASGYTFTDYWVHWVKQSHGKSLEWIGEIYPNNNTTNFNEKFKGKATLTVDKFTSTAYMELSRLTSEDSAIYYCTRGTVYYGLGYFDHWGQGVMVTVSS VL: DIRMTQSPASLSASLGETVNIECLASEDVYSDLAWYQQKPGKSPQLLIYNANNLQSGVPSRFSGSGSGTRYSLKINSLQSEDVATYFCQQYNNYPPYTFGAGTKLELK	–	–	–	–	–	–	0.541	0.000473	875000	–
anti-CD4 chimeric antibody KM4047 (antibody, V domains shown, Variable regions of rat KM4067 joined to the '113F type' human IgG1/IgG3 heavy chain constant region (US2007/0148165) and a human kappa constant region; Expressed in FUT8 knockout CHO cells (0% fucose)) VH: QVKLLQSGAALVKPGASVKMSCKASGYTFTDYWVHWVKQSHGKSLEWIGEIYPNNNTTNFNEKFKGKATLTVDKFTSTAYMELSRLTSEDSAIYYCTRGTVYYGLGYFDHWGQGVMVTVSS VL: DIRMTQSPASLSASLGETVNIECLASEDVYSDLAWYQQKPGKSPQLLIYNANNLQSGVPSRFSGSGSGTRYSLKINSLQSEDVATYFCQQYNNYPPYTFGAGTKLELK	0.369	0.000488	1.33e+06	–	–	–	–	–	–	–
anti-CD4 rat monoclonal antibody KM4065 (antibody, V domains shown, Rat hybridoma IgG with a kappa light chain) VH: EVQLVESGGGLVQPGRSMKLSCAASGFTFSNYGMAWVRQAPTKGLEWVATISYDGSITYYRDSVKGRFTISRDHAKSTLYLQMNSLRSEDTATYYCTREEQYSSWYFDFWGPGIMVTVSS VL: DIVLTQSPALAVSLGQRATISCRASQSVSISSHDLMQWYQQKPGQQPKLLIYDAFNLASGIPVRFSGSGSGTDFTLTIDPVQADDIATYYCQQSKDDPYTFGAGTKLELK	–	–	–	–	–	–	0.00426	1.52e-06	357000	–
anti-CD4 humanized antibody HV3LV0 (antibody, V domains shown, Expressed from the humanized antibody expression vector pKANTEX93) VH: EVQLVESGGGLVQPGRSLRLSCAASGFTFSNYGMAWVRQAPGKGLEWVATISYDGSITYYRDSVKGRFTISRDNSKNTLYLQMNSLRAEDTATYYCTREEQYSSWYFDFWGQGILVTVSS VL: DIQLTQSPSSLSASVGDRVTITCRASQSVSISSHDLMQWYQQKPGKAPKLLIYDAFNLASGVPSRFSGSGSGTDFTLTISSLQPEDFATYYCQQSKDDPYTFGQGTKLEIK	–	–	–	< 0.00752	< 1e-05	1.33e+06	–	–	–	binding activity relative to the anti-CD4 chimeric antibody KM4045 [4]: 0.5 fold of KM4045; Kd [5]: ≤ 0.1 nM
anti-CD4 humanized antibody HV0LV0 (antibody, V domains shown, CDRs of KM4065 grafted into human framework regions; Expressed from the humanized antibody expression vector pKANTEX93) VH: EVQLVESGGGLVQPGRSLRLSCAASGFTFSNYGMAWVRQAPGKGLEWVATISYDGSITYYRDSVKGRFTISRDNSKNTLYLQMNSLRAEDTAVYYCAREEQYSSWYFDFWGQGTLVTVSS VL: DIQLTQSPSSLSASVGDRVTITCRASQSVSISSHDLMQWYQQKPGKAPKLLIYDAFNLASGVPSRFSGSGSGTDFTLTISSLQPEDFATYYCQQSKDDPYTFGQGTKLEIK	–	–	–	0.0195	2.86e-05	1.47e+06	–	–	–	Kd [5]: ≤ 0.1 nM
anti-CD4 humanized antibody HV2LV0 (antibody, V domains shown, Expressed from the humanized antibody expression vector pKANTEX93; also called KM8045; humanized antibody KM8045) VH: EVQLVESGGGLVQPGRSLRLSCAASGFTFSNYGMAWVRQAPGKGLEWVATISYDGSITYYRDSVKGRFTISRDNSKNTLYLQMNSLRAEDTAVYYCTREEQYSSWYFDFWGQGILVTVSS VL: DIQLTQSPSSLSASVGDRVTITCRASQSVSISSHDLMQWYQQKPGKAPKLLIYDAFNLASGVPSRFSGSGSGTDFTLTISSLQPEDFATYYCQQSKDDPYTFGQGTKLEIK	–	–	–	< 0.00877	< 1e-05	1.14e+06	–	–	–	binding activity relative to the anti-CD4 chimeric antibody KM4045 [4]: 0.5 fold of KM4045; Kd [5]: ≤ 0.1 nM
